Consider two substances from PMC6435701.

The target of assay [1] is Myc-tagged ATAD3A. Briefly: co-immunoprecipitation (IP anti-Flag, WB anti-Myc), densitometry. Conditions: HEK293 cells transfected for 48 h; five independent experiments; parent: est. 1.0; read off a plot.
In assay [2] the target is ATAD3A K135Q (Flag-tagged). The experiment in a line: non-reducing western blot of ATAD3A dimer (with or without β-ME), densitometry. Conditions: HEK293 cells transfected for 48 h; at least 6 independent experiments; parent: est. 1.0; read off a plot. A general note: A western blot detects proteins with antibodies after separation by electrophoresis.
In assay [3] the target is ATAD3A K135E (Flag-tagged). The description is as above. As to conditions: HEK293 cells transfected for 48 h; at least 6 independent experiments; parent: est. 1.0; read off a plot.

Consider “ATAD3A-Flag wildtype (in HEK293 cells) K135Q”, for which the ratio to parent in assay [1] was 0.58; in assay [2] it was 0.8.

Turning to “ATAD3A-Flag wildtype (in HEK293 cells) K135E”, the ratio to parent in assay [1] was 1.6; in assay [3], 2.3.
